In the supplement of paper PMC10567573:
± gives the standard deviation.

Assay: protein stability index of a GFP-peptide fusion (GPS, HEK-293T) (PSI 1-6); higher = more stable
[1] = treatment: DMSO, c terminus: a fixed tail appended
[2] = treatment: MLN4924 1 uM, 8 h, c terminus: a fixed tail appended
[3] = treatment: DMSO, c terminus: native
[4] = treatment: MLN4924 1 uM, 8 h, c terminus: native
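Note: 24-mer peptide tiles fused after GFP, lentivirally expressed, FACS-sorted into six equal bins by GFP/DsRed ratio, decoded by Illumina sequencing, PSI is the read-weighted mean bin number.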

Sequence | protein stability index [1] | protein stability index [2] | protein stability index [3] | protein stability index [4]
KIEGHQDAVTAALLIPKEDGVITA [WDFY1] | 4.35 ± 0.23 | 4.4 ± 0.28 |  | 
KIMGVEEEDDDDDDDDNLPQLKKE [ANKRD40] | 5.6 ± 0.24 | 5.46 ± 0.19 |  | 
KKHGTQNKRAALQALKRKKRFEKQ [CHMP4C] | 4.52 ± 0.3 | 4.52 ± 0.19 |  | 
KLAKVYSYAHGWMFQGWNCGDYFP [CPN1] | 2.52 ± 0.43 | 2.52 ± 0.38 |  | 
KLFYFKIWAFLDVSFVERILKSQK [FBXO39] | 2.62 ± 0.74 | 2.47 ± 0.5 |  | 
KLSCLFAGPHSTLTPPCSPPEDGL [SNX8] | 3.25 ± 0.18 | 3.19 ± 0.4 |  | 
KNFFKKAAAALFGGKKDKARYIDT [PLK2] | 1.95 ± 0.33 | 2.4 ± 0.63 |  | 
KNRSFDIDAIYSVIDDAKQYVYIA [PLD5] | 2.75 ± 0.55 | 2.47 ± 0.71 |  | 
KPVDMWACGVILYILLVGYPPFWD [CAMK2D] | 3.46 ± 0.29 | 3.36 ± 0.41 |  | 
KPYGCVECGKAFSRSSILVQHQRV [ZNF24] | 2.07 ± 0.17 | 2.11 ± 0.2 |  | 
KQIIRKHAQTFVALCATDVKFISN [CCND1] | 2.26 ± 0.1 | 2.39 ± 0.055 |  | 
KQLVSPAAALLSNTTCQTENRLSV [PTGFR] | 3.74 ± 0.25 | 3.99 ± 0.2 |  | 
KQNPGKFCLLSCGILTFLAVLGRY [RETREG3] | 2.33 ± 0.55 | 2.54 ± 0.37 |  | 
KQNPSRQEVTKLQQQVKTNGAGVT [FBXO28] | 4.68 ± 0.2 | 4.47 ± 0.35 |  | 
KRTIIPTLVEAIKEQDGREVDWEY [DFFB] | 4.14 ± 0.11 | 4.36 ± 0.42 |  | 
KSMHREELEKSGHGQAGQRQDPRP [ZBED2] | 5.21 ± 0.13 | 5.2 ± 0.3 |  | 
KSNQPKSLEDLIFESLPENASHKL [ATE1] | 4.28 ± 0.21 | 4.5 ± 0.14 |  | 
KSSKYGEGHQAWIVGIVEKGNRTA [SEPHS2] | 2.56 ± 0.19 | 2.56 ± 0.42 |  | 
KSSVYRRYNDFVVFQEMLLHKFPY [SNX8] | 2.45 ± 0.65 | 2.24 ± 0.39 |  | 
KSVLIPVYGVSKETFLSFLEYLYT [RHOBTB3] | 2.24 ± 0.38 | 2.22 ± 0.15 |  | 
KSVMLQIAATELEKEESRREAEKQ [TNNI2] | 5.07 ± 0.092 | 5.25 ± 0.26 |  | 
KVHTVPKPGKGADLSKPPCRKAKE [ATE1] | 4.94 ± 0.24 | 5.125 ± 0.046 |  | 
KVRQLERDNAELEKLIQERSQQQE [KRT34] | 5.17 ± 0.22 | 5.28 ± 0.24 |  | 

Sequence | protein stability index [1] | protein stability index [2] | protein stability index [3] | protein stability index [4]
KYSLLKLTALLEKYTPSNKHGFSW [DLC1] | 2.65 ± 0.42 | 2.6 ± 0.61 |  | 
LAGLTRPDVRPPLGRGLVGGQEEA [SEPHS2] | 4.86 ± 0.094 | 4.92 ± 0.083 |  | 
LALGVSLLCNAITGITLLRVKFKS [PTGFR] | 2.88 ± 0.48 | 2.73 ± 0.37 |  | 
LATQSLTVETCRALGKLLPRETLC [LRRC45] | 2.44 ± 0.49 | 2.48 ± 0.45 |  | 
LCWDPVQRVLFSGSSDHSVIMWDI [WDFY2] | 2.26 ± 0.34 | 1.93 ± 0.45 |  | 
LDKLNFEAINFCRGLGSQASTVTE [ACSBG2] | 3.36 ± 0.5 | 3.71 ± 0.24 |  | 
LDKMLDPQVWREAATQVFFALGLG [SLC6A17] | 2.52 ± 0.68 | 2.25 ± 0.28 |  | 
LDPDSKENAQIIYSLAEDTIQGVP [PCDHGA10] | 4.64 ± 0.15 | 4.56 ± 0.23 |  | 
LEAEIATYRRLLEDGEDFNLGDAL [KRT18] | 4.41 ± 0.15 | 4.53 ± 0.25 |  | 
LEAGADQEHKTDEMHTALMEACMD [ANKRD17] | 5.52 ± 0.37 | 5.34 ± 0.28 |  | 
LEANADTSVEEESFGPQPISRLEQ [RAD51] | 5.38 ± 0.2 | 5.44 ± 0.18 |  | 
LEIELQSQLSMKASLENSLEETKG [KRT16] | 5.28 ± 0.066 | 5.16 ± 0.17 |  | 
LELHDYHDIIKHPMDLSTVKRKMD [BRD3] | 4.05 ± 0.19 | 3.98 ± 0.34 |  | 
LFLGQGIQVSLYCQEWYARRHCPL [SOAT2] | 2.83 ± 0.46 | 2.57 ± 0.46 |  | 
LFVLELEWVLSTGQDKQFAWHCSE [WDFY2] | 2.99 ± 0.34 | 2.77 ± 0.72 |  | 
LFVTFLLIYMVTIMGNLLIIVTIM [OR4A15] | 3.06 ± 0.41 | 3.29 ± 0.53 |  | 
LGDRLNVEVDAAPAVDLNQVLNET [KRT33B] | 4.93 ± 0.14 | 4.96 ± 0.097 |  | 
LGIPKSTTSDIPHMLNQVESKVKD [FAM98B] | 5.04 ± 0.27 | 5.23 ± 0.11 |  | 
LGLVGYYIFRVANHQKDLFRRTDG [DHCR7] | 2.45 ± 0.2 | 2.6 ± 0.31 |  | 
LGLYINFRHLYKQRRRRYGQKKKK [HACD3] | 2.37 ± 0.22 | 2.61 ± 0.34 |  | 
LGMYQKVTSYCRSATLVGFTVGSV [SLC19A2] | 2.74 ± 0.6 | 2.73 ± 0.41 |  | 
LGNGNDKKEMNKSDLNTNNLLFKP [KMT2E] | 4.65 ± 0.25 | 4.34 ± 0.32 |  | 
LGPSLEDLFDLCDRTFTLKTVLMI [CSNK1G1] | 2.69 ± 0.82 | 2.56 ± 0.9 |  | 

Sequence | protein stability index [1] | protein stability index [2] | protein stability index [3] | protein stability index [4]
LGVDTAETSYLEMAAGSEPESVEA [KMT2E] | 5.27 ± 0.32 | 5.5 ± 0.42 |  | 
LHCWLNAFAEMLRFGDRMFYKDWW [SOAT1] | 2.97 ± 0.3 | 2.77 ± 0.6 |  | 
LHDIFENKTDVVLILELVSGGELF [DAPK3] | 1.87 ± 0.37 | 2.39 ± 0.58 |  | 
LHEALLEYEAGRAGPGGGAERRRA [ESRRA] | 4.27 ± 0.34 | 4.82 ± 0.18 |  | 
LHYAAASDMDRNKTILGNAHDNSE [ANKRD44] | 4.76 ± 0.15 | 4.9 ± 0.044 |  | 
LIQNEYRNGGSLADAISENYRIMS [WEE1] | 2.38 ± 0.31 | 2.5 ± 0.48 |  | 
LIRYICGVVHPSNEVLSSDILPRW [INTS3] | 2.66 ± 0.26 | 2.56 ± 0.49 |  | 
LISHVLEQNQEGDAAYRKALDLAR [AUH] | 3.38 ± 0.55 | 3.09 ± 0.19 |  | 
LISKLPYIHFFHTVLKQIAPEYFE [DENND6A] | 2.64 ± 0.28 | 2.37 ± 0.63 |  | 
LIVVTQSHLVIHNLFEGMIWFIVP [CDS2] | 3.06 ± 0.41 | 3.25 ± 0.59 |  | 
LKFHKLVNVTIHFRLKTINLQSLI [MCOLN1] | 3.17 ± 0.37 | 3.12 ± 0.31 |  | 
LKNKCCPPPCKFGEGKLSKRLKHK [C22orf31] | 3.49 ± 0.21 | 3.74 ± 0.48 |  | 
LKPLLSPSSETTVTVELPEADRAG [LYSMD4] | 5.04 ± 0.23 | 5.07 ± 0.28 |  | 
LKSAKDLPPDALIIEYRGKFMLRE [KMT2E] | 2.15 ± 0.4 | 2.38 ± 0.43 |  | 
LKVGGILVMPLEEKLTKITRTGPS [PCMTD2] | 2.4 ± 0.21 | 2.16 ± 0.41 |  | 
LKVRYRERITILRGNHESRQITQV [PPP2CA] | 2.37 ± 0.19 | 2.42 ± 0.32 |  | 
LLDKLAKENQDIRLLQAQLQAQKE [PBXIP1] | 4.37 ± 0.33 | 4.21 ± 0.27 |  | 
LLEEGGLVQVESVNLQVATYSKFQ [UFD1] | 2.85 ± 0.32 | 2.9 ± 0.31 |  | 
LLEERRPADSAQLLSLNSLLPESG [TFE3] | 4.37 ± 0.42 | 4.54 ± 0.24 |  | 
LLKCVRESDPSDPNKDMVVQLIDD [SRPK2] | 4.6 ± 0.41 | 4.57 ± 0.079 |  | 
LLMTSGVVLCEGVKWLSFHSGYDF [CNOT7] | 3.33 ± 0.37 | 2.9 ± 0.39 |  | 
LLRHGMDRLWRPSKVLSLQDLCCR [RAB40B] | 3.03 ± 0.09 | 2.97 ± 0.25 |  | 
LLRMCSHGEGKINYYNFVRAFSN [EFHC1] |  |  | 2.32 ± 0.66 | 2.08 ± 0.57

Sequence | protein stability index [1] | protein stability index [2] | protein stability index [3] | protein stability index [4]
LMPGVPPLMPGMPPVMPGMPPGLH [ZNF207] | 3.02 ± 0.33 | 2.99 ± 0.32 |  | 
LMTCEMLNRRNGSLRIALSEHLKQ [EDNRA] | 2.71 ± 0.17 | 2.72 ± 0.26 |  | 
LNIVERYDPKENKWTRVASMSTRR [KLHL20] | 3.31 ± 0.084 | 3.39 ± 0.23 |  | 
LPHLVALTEQYTVTGLMEATQMMV [RHOBTB2] | 2.89 ± 0.67 | 2.86 ± 0.52 |  | 
LPMATVDIKNPEITTNRFYGPQVN [WASL] | 3.4 ± 0.75 | 3.54 ± 0.34 |  | 
LPRKRQSLRSSSSKLAQLTLEQIL [INTS3] | 2.34 ± 0.19 | 2.44 ± 0.12 |  | 
LPSHPLELSEKNFQLNQDKMNFST [POMP] | 3.84 ± 0.29 | 3.78 ± 0.21 |  | 
LPVETLGPASRMDPESERALQAPH [PBXIP1] | 4.58 ± 0.43 | 4.84 ± 0.33 |  | 
LQAKALQLIVTARTTRGLDPLFGM [INTS4] | 2.88 ± 0.6 | 2.59 ± 0.66 |  | 
LQLLREENRALQQLLEQKQAYWAQ [CBY2] | 2.62 ± 0.18 | 2.94 ± 0.31 |  | 
LQRLGELQSELAGVADFSATYLRC [INTS4] | 2.72 ± 0.22 | 2.93 ± 0.34 |  | 
LQSTYATPVDMWSVGCIFAEMFRR [CDK4] | 2.32 ± 0.42 | 2.37 ± 0.41 |  | 
LRDHADSNIVIMLVGNKSDLRHLR [RAB11A] | 2.36 ± 0.24 | 2.18 ± 0.38 |  | 
LREKLLEAEQSLRNLEDIHMSLEK [TEKT4] | 3.03 ± 0.52 | 3.3 ± 0.63 |  | 
LRKAVLKNLYKLASQCCGVHVISL [PTGFR] | 2.79 ± 0.5 | 2.73 ± 0.99 |  | 
LRQLRELEEQFALEAGGYQAGAAR [PRPH] | 4.07 ± 0.3 | 4.24 ± 0.084 |  | 
LRSFEGLMGTIKSKVSGGKRAWP [TPD52L3] |  |  | 2.94 ± 0.91 | 3.63 ± 0.26
LSATIGSILRELDTSMDGTEPPQN [SERTAD3] | 4.1 ± 0.15 | 4.26 ± 0.33 |  | 
LSIQLQPKETQPFPKSEQVYLHFL [ZNF232] | 2.4 ± 0.25 | 2.52 ± 0.35 |  | 
LSLVLGNVNVTLLSKQAKFAYKDE [TMEM120A] | 2.59 ± 0.53 | 2.23 ± 0.28 |  | 
